Conditions in all cases: both partners purified
Assay [1] addresses T1, murine IL-6 receptor subunit alpha (mouse, UniProt P22272 20-364).
T1 construct: also called mIL-6Rα; IL-6Rα; source: bought: abcam
T1 sequence (looked up): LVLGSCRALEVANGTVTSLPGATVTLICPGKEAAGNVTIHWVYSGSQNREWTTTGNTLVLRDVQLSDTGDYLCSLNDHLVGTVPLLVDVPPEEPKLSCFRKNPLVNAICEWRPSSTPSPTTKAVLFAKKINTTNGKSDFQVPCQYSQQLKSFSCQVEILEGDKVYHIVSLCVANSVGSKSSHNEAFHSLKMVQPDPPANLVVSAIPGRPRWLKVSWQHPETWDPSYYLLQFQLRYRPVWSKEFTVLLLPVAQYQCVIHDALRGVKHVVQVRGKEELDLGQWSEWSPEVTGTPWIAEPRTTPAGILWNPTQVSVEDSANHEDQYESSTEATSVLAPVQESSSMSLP
In words: SPR; Biacore 8K; receptor immobilised on a CM5 chip by amine coupling, 25 °C, PBS-P running buffer, analytes with 5% DMSO; steady state affinity model. For orientation: In SPR one partner is held on a chip, and binding of the other changes the refractive index at the surface.

Assay [2] has as its target T2, recombinant mouse IL-6 receptor subunit alpha protein with the Fc region of mouse IgG2a (mouse, UniProt P22272 20-364).
T2 construct: also called Fc-IL-6Rα; IL-6Rα; source: bought: abcam
T2 sequence (looked up): T1 sequence (looked up)
The assay is described as follows: SPR; Biacore 8K; receptor immobilised on CM5 chip by amine coupling, 25 °C, PBS-P running buffer; analytes with 5% DMSO injected serially; steady-state affinity model.

Assay [3] has as its target T3, mouse IL-21 receptor protein with the Fc region of human IgG1 (mouse, UniProt Q9JHX3 20-237).
T3 construct: also called IL-21R-Fc; murine IL-21R; source: bought: Sino Biological
The description is as above.

The target of assay [4] is T4, murine IL-6 receptor subunit alpha (mouse, UniProt P22272 20-364).
T4 construct: also called IL-6Rα; mIL-6R; source: bought: abcam
T4 sequence (looked up): T1 sequence (looked up)
In words: SPR; Biacore 8K; murine IL-6Rα or IL-21R (20 nM) immobilised on a CM5 chip by amine coupling, 25 °C, PBS-P running buffer; analytes with 5% DMSO injected serially (salivaricin B and mutants 12.5-800 µM; mIL-6 0.003125-0.1 µM; mIL-21 0.625-5 nM); KD of salivaricins from a steady-state affinity model.

The target in the next assay is T5, murine IL-21 receptor (mouse, UniProt Q9JHX3 20-237).
T5 construct: also called mIL-21R; Mouse IL-21R; source: bought: Sino Biological
The description is as above.

Assay [5] has as its target T1, murine IL-6 receptor subunit alpha. The assay is described as follows: SPR; Biacore 8K; receptor immobilised on a CM5 chip by amine coupling, 25 °C, PBS-P running buffer, analyte with 5% DMSO; 1:1 binding model.
For a further assay, the target named is murine IL-21 (mouse, UniProt Q9ES17 18-146). The assay is described as follows: SPR; Biacore 8K; receptor immobilised on a CM5 chip by amine coupling, 25 °C, PBS-P running buffer, analytes with 5% DMSO; steady state affinity model.

This note sets out measurements from paper PMC9596850, “Tonsillar Microbiome‐Derived Lantibiotics Induce Structural Changes of IL‐6 and IL‐21 Receptors and Modulate Host Immunity” (Advanced Science, 2022).

B1: salivaricin A2 (peptide)
peptide: KRGTGWFATITDDCPNSVFVCC
notes: salivaricin A2, lantibiotic peptide commonly synthesized by Streptococcus salivarius; also called SalA2; source: synthetic peptide (solid-phase, RoYo Biotech), HPLC purified, purity more than 96%
The Kd is a measure of binding affinity in units of concentration. In the case of B1, the Kd in assay [1] amounted to 51.4 µM.

B2: salivaricin B (peptide)
peptide: GGGVIQTISHECRMNSWQFLFTCCS
notes: salivaricin B, lantibiotic peptide commonly synthesized by S. salivarius; Chemically synthesized; also called SalB; source: synthetic peptide (solid-phase, RoYo Biotech; HPLC, purity more than 96%)
For B2, the equilibrium dissociation constant (Kd) in assay [2] was 160 µM; in assay [3], 10.1 µM.

B3: salivaricin B (peptide)
peptide: GGGVIQTISHECRMNSWQFLFTCCS
notes: salivaricin B, lantibiotic peptide commonly synthesized by Streptococcus salivarius; chemically synthesized; Molecular weight on the synthesis report is 2805.23; also called SalB; source: synthetic peptide (solid-phase synthesis, RoYo Biotech; HPLC purified, purity more than 96%)
As for B3, the Kd is 354 µM in assay [4] and 12.6 µM with murine IL-21 receptor.

B4: murine IL-6 (ligand, mouse, UniProt P08505 25-211, looked up)
chain: FPTSQVRRGDFTEDTTPNRPVYTTSQVGGLITHVLWEIVEMRKELCNGNSDCMNNDDALAENNLKLPEIQRNDGCYQTGYNQEICLLKISSGLLEYHSYLEYMKNNLKDNKKDKARVLQRDTETLIHIFNQEVKDLHKIVLPTPISNALLTDKLESQKEWLRTKTIQFILKSLEEFLKVTLRSTRQT
notes: also called mIL-6
Regarding B4, binding in assay [5] was put at a Kd of 0.0137 µM.

B5: murine IL-21 receptor (receptor)
chain: not shown
notes: also called mIL-21R; source: bought: Sino Biological
B5 had a Kd with murine IL-21 of 0.0349 nM.
